According to US20250179196A1 (Janssen / Centocor, published 2025):

T1: human IL-23R expressed on the cell surface of stably transfected iLite and HEK cell lines (human, UniProt Q5VWK5 24-629)
T1 construct: whole, on cells; Same receptor on two transfected cell lines; the cell line is named under assay; also called human IL-23R iLite cells; human IL-23R HEK cells
T1 sequence (looked up): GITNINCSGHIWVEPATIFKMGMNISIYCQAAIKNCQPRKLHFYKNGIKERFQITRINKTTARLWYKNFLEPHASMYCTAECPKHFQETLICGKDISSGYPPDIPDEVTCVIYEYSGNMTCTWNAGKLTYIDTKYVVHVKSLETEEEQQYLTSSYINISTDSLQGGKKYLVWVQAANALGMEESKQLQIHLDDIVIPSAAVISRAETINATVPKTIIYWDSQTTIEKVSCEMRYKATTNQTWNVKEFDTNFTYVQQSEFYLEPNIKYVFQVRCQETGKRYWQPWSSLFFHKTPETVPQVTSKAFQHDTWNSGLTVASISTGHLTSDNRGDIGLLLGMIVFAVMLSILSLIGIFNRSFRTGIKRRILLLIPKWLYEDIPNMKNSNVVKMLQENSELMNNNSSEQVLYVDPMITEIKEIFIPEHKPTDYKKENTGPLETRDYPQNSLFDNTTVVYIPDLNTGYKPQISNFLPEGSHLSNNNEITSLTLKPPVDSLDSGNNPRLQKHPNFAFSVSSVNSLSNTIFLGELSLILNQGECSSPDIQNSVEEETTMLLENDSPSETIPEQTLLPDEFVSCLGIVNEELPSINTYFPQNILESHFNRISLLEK

T2: Recombinant human IL-23 receptor (IL-23R) extracellular domain (ECD) protein (human, UniProt Q5VWK5 24-355)
T2 construct: also called human IL-23R ECD; hu IL-23R ECD
T2 sequence: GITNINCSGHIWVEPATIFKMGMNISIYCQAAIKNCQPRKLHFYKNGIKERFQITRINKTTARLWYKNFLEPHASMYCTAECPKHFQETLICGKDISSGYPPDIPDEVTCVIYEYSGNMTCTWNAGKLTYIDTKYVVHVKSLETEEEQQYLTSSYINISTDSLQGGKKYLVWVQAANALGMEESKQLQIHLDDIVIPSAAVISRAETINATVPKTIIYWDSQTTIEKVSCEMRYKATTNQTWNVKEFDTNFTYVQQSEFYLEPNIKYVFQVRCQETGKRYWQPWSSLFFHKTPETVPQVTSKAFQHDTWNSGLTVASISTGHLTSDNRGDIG

T3: human IL-23R on the cell surface (human, UniProt Q5VWK5 24-629)
T3 construct: whole, on cells; also called cell surface human IL-23R; IL-23R on iLite cells, HEK-IL-23R cells and primary human immune cells
T3 sequence (looked up): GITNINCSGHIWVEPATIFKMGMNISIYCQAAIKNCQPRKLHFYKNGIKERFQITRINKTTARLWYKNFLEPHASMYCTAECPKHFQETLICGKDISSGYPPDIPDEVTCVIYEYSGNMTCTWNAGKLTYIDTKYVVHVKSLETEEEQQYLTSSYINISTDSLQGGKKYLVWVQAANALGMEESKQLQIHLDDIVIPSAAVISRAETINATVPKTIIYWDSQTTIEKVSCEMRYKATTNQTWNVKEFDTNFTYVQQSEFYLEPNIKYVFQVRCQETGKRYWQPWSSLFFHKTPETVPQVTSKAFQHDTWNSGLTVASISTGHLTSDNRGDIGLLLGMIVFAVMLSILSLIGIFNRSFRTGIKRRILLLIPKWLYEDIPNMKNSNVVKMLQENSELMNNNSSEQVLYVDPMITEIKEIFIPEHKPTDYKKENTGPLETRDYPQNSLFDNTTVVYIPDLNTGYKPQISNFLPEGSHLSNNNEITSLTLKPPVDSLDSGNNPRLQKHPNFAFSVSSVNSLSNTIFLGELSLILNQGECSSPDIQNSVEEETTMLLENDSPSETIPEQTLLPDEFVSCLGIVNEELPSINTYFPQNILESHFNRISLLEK

T4: rat IL-23R extracellular domain (ECD) protein (rat)
T4 construct: also called rat IL-23R ECD; F1LX96 amino acids 24-354
T4 chain: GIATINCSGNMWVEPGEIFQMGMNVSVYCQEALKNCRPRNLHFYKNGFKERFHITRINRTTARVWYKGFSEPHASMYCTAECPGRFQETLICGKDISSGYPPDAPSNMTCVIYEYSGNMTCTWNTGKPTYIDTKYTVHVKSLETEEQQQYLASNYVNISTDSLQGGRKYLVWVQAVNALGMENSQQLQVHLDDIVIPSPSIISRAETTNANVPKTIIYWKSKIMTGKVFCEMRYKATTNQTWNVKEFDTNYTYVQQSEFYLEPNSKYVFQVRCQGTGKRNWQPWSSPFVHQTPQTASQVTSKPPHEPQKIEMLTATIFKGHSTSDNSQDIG

B1: I23RB4 (antibody, mouse IgG2a, kappa, V domains shown)
VH: QVQLVQSGAEVKKPGSSVKVSCKASGGTFKTYAIHWVRQAPGQGLEWMGWIIPIFGTANYAQKFQGRVTITADESTSTAYMELSSLRSEDTAVYYCARDGGYYGSRYYPRSYYFDYWGQGTLVTVSS
VL: EIVLTQSPATLSLSPGERATLSCRASQSVSSYLAWYQQKPGQAPRLLIYDASNRATGIPARFSGSGSGTDFTLTISSLEPEDFAVYYCQQRSNWPLTFGQGTKVEIKR
notes: phage display; human V, mouse IgG2a/kappa
B2: I23RB3 (antibody, mouse IgG2a, kappa, V domains shown)
VH: QVQLVQSGAEVKKPGSSVKVSCKASGGTFKSYSIHWVRQAPGQGLEWMGGIIPYFGYANYAQKFQGRVTITADESTSTAYMELSSLRSEDTAVYYCARERGYYGSIYYGGGFDYWGQGTLVTVSS
VL: EIVLTQSPATLSLSPGERATLSCRASQSVSSYLAWYQQKPGQAPRLLIYDASNRATGIPARFSGSGSGTDFTLTISSLEPEDFAVYYCQQRSNWPLTFGQGTKVEIKR
notes: as for B1
B3: I23RB71 (antibody, mouse IgG2a, kappa, V domains shown)
VH: DVQLQESGPDLVKPSQSLSLTCTVTDYSITRGYNWHWIRQFPGNKLEWMGYIHYSGSTNYNPSLKSRISITRDTSKNQFFLQLNSVTTEDTATYYCARQYGLKAMDYWGQGTSVTVSS
VL: DIVMTQSHKFMSTSVGDRVSITCKASQDVITAVAWYQQKPGQSPKLLIYSASYRYTGVPDRFTGSGSGTDFTFTISSVQAEDLAVYFCQQHFGTPYTFGSGTKLEMKR
notes: mouse immunization; mouse IgG2a/kappa
B4: I23RB165 (antibody, mouse IgG2a, kappa, V domains shown)
VH: EVQLQQSGAELVRPGASVKLSCTASGFNIKDSLMHWVKQRPEQGLEWIGWIDPEDGKTKYAPKFQDKATITADTSSNTAYLQLSSLTSEDTAIYYCARREVLDYFDYWGQGTTLTVSS
VL: DIVMTQSPASLAVSLGQRATISCRASKSVSTSGYSYMHWYQQKPGQPPKLLIYLASNLESGVPARFSGSGSGTDFTLNIHPVEEEDAATYYCQHSRELPLTFGAGTKLEMKR
notes: as for B3

Key:
[1] = target: T1, human IL-23R expressed on the cell …; experiment: flow cytometry on human IL-23R iLite cells, Expt A (1-point)
Procedure: Human IL-23R iLiTe cell single concentration mAb Binding. Anti-IL-23R mouse IgG₂ₐ mAbs derived from phage panning were tested for binding to human IL-23R expressing iLiTe cells, where a PE conjugated anti mouse secondary antibody detected mAbs bound to the receptor on the cells. […] The next day 100,000 cells were added to each well of a 96 well V bottom plate (Costar, Catalog #3357), centrifuged at 450× gravity for 2 minutes, and then supernatants were decanted. […] Antibodies diluted to 3 μg/mL in Stain Buffer (BSA) (BD Pharmagen, Catalog #554657) were added at 100 μL/well and incubated on ice for 50 minutes, then plates were centrifuged and supernatants were decanted. […] Cells were washed by adding 100 μL/well of Stain Buffer followed by centrifugation and decanting of the supernatants. Cells were resuspended in 100 μL/well of Stain Buffer and analyzed on the Becton Dickenson LSR II FACS instrument with HTS module. Data was analyzed using FlowJo software (Treestar) to obtain geometric mean fluorescence intensities.

[2] = target: T1, human IL-23R expressed on the cell …; experiment: flow cytometry on human IL-23R HEK cells, Expt E (11-point, 384well)
How it was run: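 Antibody bound to HEK-IL-23R cells 30 min at 37 °C over 11 concentrations; after washes, Sytox Green added and cells run on iQue. Geometric MFI of 647 detection antibody on single viable cells fitted by variable-slope dose–response.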

[3] = target: T1, human IL-23R expressed on the cell …; experiment: flow cytometry on human IL-23R iLite cells, Expt C (12-point), Gate 1 + 2
Procedure: (§1) Human IL-23R iLiTe cell concentration response mAb binding. […] The next day 100,000 cells were added to each well of a 96 well V bottom plate (Costar, Catalog #3357), centrifuged at 450× gravity for 2 minutes, and then supernatants were decanted. Antibodies were diluted in Stain Buffer (BSA) (BD Pharmagen, Catalog #554657) and added at 50 μL/well, and mixed. Plates were incubated on ice for 50 minutes, then plates were centrifuged and supernatants were decanted. […] Cells were washed by adding 200 μL/well of Stain Buffer followed by centrifugation and decanting of the supernatants. Cells were resuspended in 100 μL/well of Stain Buffer, transferred in quadruplicate to a 384 well plate (Greiner, Catalog #781281) and analyzed on the Becton Dickenson LSR II FACS instrument with HTS module. Data was analyzed using FlowJo software (Treestar) to obtain geometric mean fluorescence intensities, and geometric mean fluorescence intensities were plotted over log mAb concentrations fitted with a sigmoidal dose response curve with variable slope using GraphPad Prism.

[4] = target: T1, human IL-23R expressed on the cell …; experiment: flow cytometry on human IL-23R iLite cells, Expt B (1-point)
Procedure: Human IL-23R iLiTe cell single concentration mAb Binding. Anti-IL-23R mouse IgG₂ₐ mAbs derived from phage panning were tested for binding to human IL-23R expressing iLiTe cells, where a PE conjugated anti mouse secondary antibody detected mAbs bound to the receptor on the cells. […] The next day 100,000 cells were added to each well of a 96 well V bottom plate (Costar, Catalog #3357), centrifuged at 450× gravity for 2 minutes, and then supernatants were decanted. […] Cells were washed by adding 100 μL/well of Stain Buffer followed by centrifugation and decanting of the supernatants. Cells were resuspended in 100 μL/well of Stain Buffer and analyzed on the Becton Dickenson LSR II FACS instrument with HTS module. Data was analyzed using FlowJo software (Treestar) to obtain geometric mean fluorescence intensities.

[5] = target: T1, human IL-23R expressed on the cell …; experiment: flow cytometry on human IL-23R iLite cells, Expt C (12-point), Gate 2
Procedure: as §1

[6] = target: T2, Recombinant human IL-23 receptor …; experiment: SPR Biacore 8K, supernatant, analysis 2
How it was run: (§2)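 Kinetics fitted to a 1:1 Langmuir model gave on-rate, off-rate and KD. Human or rat IL-23R ECD flowed over captured mAbs (~150 RU) at 0.8–500 nM, 5-fold dilutions: 3 min binding at 50 μL/min, then 30 min buffer, 25 °C, HBS-P+ plus 100 μg/ml BSA.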

[7] = target: T3, human IL-23R on the cell surface; experiment: flow cytometry, HEK-IL-23R cells (Expt E)
[8] = target: T4, rat IL-23R extracellular domain (ECD) …; experiment: SPR Biacore 8K, supernatant
How it was run: as §2

[9] = target: T2, Recombinant human IL-23 receptor …; experiment: SPR Biacore 8K, supernatant, analysis 1
How it was run: as §2

Binder | MFI @ 20 nM [1] | MFI (6.4 nM) [2] | EC50 [3] | MFI @ 0.7 nM [4] | EC50 [5] | Kd [6] | koff [6] | kon [6] | EC50 [7] | binding result [8] | Kd [9] | koff [9] | kon [9]
B1 | 4390 MFI | 225000 MFI | 0.04 nM | 2990 MFI | 0.03 nM |  |  |  |  |  |  |  | 
B2 | 4320 MFI | 149000 MFI | 0.66 nM | 1460 MFI | 0.37 nM |  |  |  |  |  |  |  | 
B3 |  |  |  |  |  | 0.129 nM | 4.63e-05 s⁻¹ | 358000 M⁻¹ s⁻¹ | ≤ 9.7 nM | no binding (tested: 500 nM) | 0.328 nM | 0.000231 s⁻¹ | 704000 M⁻¹ s⁻¹
B4 |  |  |  |  |  | 29.1 nM | 0.00941 s⁻¹ | 324000 M⁻¹ s⁻¹ | ≤ 9.7 nM | no binding (tested: 500 nM) | 18.1 nM | 0.00806 s⁻¹ | 446000 M⁻¹ s⁻¹
